US20100150931A1 (CENTRE HOSPITALIER DE L UNIVERSITE DE MONTREAL, published 2010)
Where a chain is given by its changes, count along the chain named. Names may count otherwise. Each block holds one binder with its values, some of them ahead of it.

Columns and labels:
CD40 on BJAB B cells = target: T1, CD40 on BJAB B cells (human, UniProt P25942 21-277); assay: flow cytometry, competition with sCD40L-Alexa on BJAB cells
T1 construct: whole, on cells; also called CD40-positive human BJAB B cell line
T1 sequence (P25942 21-277): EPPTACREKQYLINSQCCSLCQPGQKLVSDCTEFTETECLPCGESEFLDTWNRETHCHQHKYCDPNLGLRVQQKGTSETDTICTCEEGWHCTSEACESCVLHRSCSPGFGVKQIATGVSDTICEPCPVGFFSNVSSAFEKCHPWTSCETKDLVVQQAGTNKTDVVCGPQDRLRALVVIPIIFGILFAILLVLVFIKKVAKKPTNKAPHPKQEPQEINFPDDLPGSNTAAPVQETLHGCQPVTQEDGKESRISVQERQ

[1] = target: T2, α5β1 integrin on cells (U937 and other CD40-negative cell lines) (human, UniProt P08648 42-1049; P05556 21-798); assay: flow cytometry, competition with sCD40L-Alexa on U937 cells
T2 construct: whole, on cells; U937 cells are CD40-negative; also called VLA-5; CD49e/CD29
T2 sequence (P08648 42-1049, chain 1 of 2): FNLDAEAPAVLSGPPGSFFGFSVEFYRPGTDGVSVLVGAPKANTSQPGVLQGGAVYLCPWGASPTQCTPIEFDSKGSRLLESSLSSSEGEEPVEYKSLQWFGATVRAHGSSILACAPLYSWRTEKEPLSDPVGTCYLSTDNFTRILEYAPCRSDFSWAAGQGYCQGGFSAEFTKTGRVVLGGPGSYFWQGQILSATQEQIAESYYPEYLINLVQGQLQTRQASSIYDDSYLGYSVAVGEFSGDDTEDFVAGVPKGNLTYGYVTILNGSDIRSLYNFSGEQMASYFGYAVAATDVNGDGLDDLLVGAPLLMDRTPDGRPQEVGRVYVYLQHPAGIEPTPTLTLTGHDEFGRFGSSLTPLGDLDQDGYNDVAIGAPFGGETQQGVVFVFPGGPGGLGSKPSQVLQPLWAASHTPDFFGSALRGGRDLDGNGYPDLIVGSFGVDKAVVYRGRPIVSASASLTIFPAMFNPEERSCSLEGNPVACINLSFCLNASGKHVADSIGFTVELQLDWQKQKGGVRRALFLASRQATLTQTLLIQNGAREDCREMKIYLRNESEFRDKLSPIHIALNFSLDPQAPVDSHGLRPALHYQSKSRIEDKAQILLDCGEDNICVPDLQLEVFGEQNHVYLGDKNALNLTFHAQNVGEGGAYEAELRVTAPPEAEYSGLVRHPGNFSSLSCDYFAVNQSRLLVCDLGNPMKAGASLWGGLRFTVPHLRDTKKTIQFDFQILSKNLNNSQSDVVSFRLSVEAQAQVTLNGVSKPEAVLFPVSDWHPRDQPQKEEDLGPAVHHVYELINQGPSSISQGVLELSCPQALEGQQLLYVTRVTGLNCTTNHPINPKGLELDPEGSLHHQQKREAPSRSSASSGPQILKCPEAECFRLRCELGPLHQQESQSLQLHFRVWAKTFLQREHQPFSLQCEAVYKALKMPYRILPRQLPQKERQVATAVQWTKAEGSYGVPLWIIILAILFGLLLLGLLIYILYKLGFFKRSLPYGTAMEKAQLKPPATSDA
T2 sequence (P05556 21-798, chain 2 of 2): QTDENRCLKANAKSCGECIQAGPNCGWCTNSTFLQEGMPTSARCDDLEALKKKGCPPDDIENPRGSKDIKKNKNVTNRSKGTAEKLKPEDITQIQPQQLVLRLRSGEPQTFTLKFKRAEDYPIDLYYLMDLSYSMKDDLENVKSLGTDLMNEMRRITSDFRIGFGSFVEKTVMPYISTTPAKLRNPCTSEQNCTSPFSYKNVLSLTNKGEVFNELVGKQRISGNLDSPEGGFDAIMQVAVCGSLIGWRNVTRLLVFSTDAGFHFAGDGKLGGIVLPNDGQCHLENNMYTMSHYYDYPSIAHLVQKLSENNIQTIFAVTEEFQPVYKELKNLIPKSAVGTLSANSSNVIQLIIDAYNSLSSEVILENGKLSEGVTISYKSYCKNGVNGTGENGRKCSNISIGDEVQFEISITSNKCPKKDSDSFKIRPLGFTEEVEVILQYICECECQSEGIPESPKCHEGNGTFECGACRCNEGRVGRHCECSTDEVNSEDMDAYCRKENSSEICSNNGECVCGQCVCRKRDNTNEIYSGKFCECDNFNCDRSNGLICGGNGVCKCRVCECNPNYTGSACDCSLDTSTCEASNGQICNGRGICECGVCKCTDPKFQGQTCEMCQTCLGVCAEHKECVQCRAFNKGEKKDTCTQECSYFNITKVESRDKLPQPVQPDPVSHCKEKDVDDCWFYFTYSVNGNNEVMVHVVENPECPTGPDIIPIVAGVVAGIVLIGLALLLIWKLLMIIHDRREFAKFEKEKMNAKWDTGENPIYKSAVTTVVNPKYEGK

[2] = target: T2, α5β1 integrin on cells (U937 and other …); assay: cell-based or functional assay

binding result (CD40 on BJAB B cells): binds
binding result [1]: binds
B1: CD40L Y170A (monomeric soluble human CD40L mutant) (ligand)
chain: MQKGDQNPQIAAHVISEASSKTTSVLQWAEKGYYTMSNNLVTLENGKQLTVKRQGLYAIYAQVTFCSNREASSQAPFIASLCLKSPGRFERILLRAANTHSSAKPCGQQSIHLGGVFELQPGASVFVNVTDPSQVSHGTGFTSFGLLKL
notes: Made in Drosophila S2 cells from the soluble human CD40L construct M113 to L261 with Y170 changed to alanine; Numbering of Y170 is that of full-length human CD40L; also called hsCD40LY170A; hCD40L mutated in its Y170 residue; not shown: C-terminal V5 / hexahistidine tag from the pMT-BiP/V5-His A vector

binding result (CD40 on BJAB B cells): binds
binding result [1]: binds
B2: CD40L G227A (monomeric soluble human CD40L mutant) (ligand)
chain: B1 chain with A58Y, G115A
notes: Made in Drosophila S2 cells from the soluble human CD40L construct M113 to L261 with G227 changed to alanine; also called hCD40L mutated in its G227 residue; not shown: C-terminal V5 / hexahistidine tag from the pMT-BiP/V5-His A vector

IL-8 mRNA expression (RT-PCR, U937 cells) [2]: 2.5 fold increase
B3: Recombinant trimeric soluble CD40L (ligand, UniProt P29965 51-261, looked up)
chain: DKIEDERNLHEDFVFMKTIQRCNTGERSLSLLNCEEIKSQFEGFVKDIMLNKEETKKENSFEMQKGDQNPQIAAHVISEASSKTTSVLQWAEKGYYTMSNNLVTLENGKQLTVKRQGLYYIYAQVTFCSNREASSQAPFIASLCLKSPGRFERILLRAANTHSSAKPCGQQSIHLGGVFELQPGASVFVNVTDPSQVSHGTGFTSFGLLKL
modifications: Alexa Fluor-488 label in the form called rsCD40L-A; unlabelled in the solid phase assay and in cell stimulation
